Data: doi:10.1101/2022.08.25.505315 (bioRxiv, 2022)

Target: the molecule itself
Assay: SEC

B1: human malic enzyme 3 (mitochondrial NADP+-dependent malic enzyme 3), residues 46-604 (enzyme, UniProt Q16798 46-604, looked up)
chain: LKKRGYDVTRNPHLNKGMAFTLEERLQLGIHGLIPPCFLSQDVQLLRIMRYYERQQSDLDKYIILMTLQDRNEKLFYRVLTSDVEKFMPIVYTPTVGLACQHYGLTFRRPRGLFITIHDKGHLATMLNSWPEDNIKAVVVTDGERILGLGDLGCYGMGIPVGKLALYTACGGVNPQQCLPVLLDVGTNNEELLRDPLYIGLKHQRVHGKAYDDLLDEFMQAVTDKFGINCLIQFEDFANANAFRLLNKYRNKYCMFNDDIQGTASVAVAGILAALRITKNKLSNHVFVFQGAGEAAMGIAHLLVMALEKEGVPKAEATRKIWMVDSKGLIVKGRSHLNHEKEMFAQDHPEVNSLEEVVRLVKPTAIIGVAAIAGAFTEQILRDMASFHERPIIFALSNPTSKAECTAEKCYRVTEGRGIFASGSPFKSVTLEDGKTFIPGQGNNAYVFPGVALGVIAGGIRHIPDEIFLLTAEQIAQEVSEQHLSQGRLYPPLSTIRDVSLRIAIKVLDYAYKHNLASYYPEPKDKEAFVRSLVYTPDYDSFTLDSYTWPKEAMNVQTV
stoichiometry N: 4
